Here are results for one molecule from paper PMC5039685 (Theranostics, 2016).

The assay deals with GST-Src (UniProt P12931 1-536). Description: pull-down.

B1: (His)6-tagged EB1 (natural protein, UniProt Q15691 1-268, looked up)
chain: MAVNVYSTSVTSDNLSRHDMLAWINESLQLNLTKIEQLCSGAAYCQFMDMLFPGSIALKKVKFQAKLEHEYIQNFKILQAGFKRMGVDKIIPVDKLVKGKFQDNFEFVQWFKKFFDANYDGKDYDPVAARQGQETAVAPSLVAPALNKPKKPLTSSSAAPQRPISTQRTAAAPKAGPGVVRKNPGVGNGDDEAAELMQQVNVLKLTVEDLEKERDFYFGKLRNIELICQENEGENDPVLQRIVDILYATDEGFVIPDEGGPQEEQEEY
On to B1, for which the binding result was “binds”.
